Measurements published in the supplement of paper PMC12855868.

B1: library; numbered along this chain (parent)
chain: MAAAGGARLLRAASAVLGGPAGRWLHHAGSRAGSSGLLRNRGPGGSAEASRSLSVSARARSSSEDKITVHFINRDGETLTTKGKVGDSLLDVVVENNLDIDGFGACEGTLACSTCHLIFEDHIYEKLDAITDEENDMLDLAYGLTDRSRLGCQICLTKSMDNMTVRVPETVADARQSIDVGKTS

Variants of: B1
Test: scaled log2 fold change in cell abundance, elesclomol vs control (0 = silent mean, 1 = nonsense mean) (scaled log2 ratio); higher = higher viability under elesclomol (loss of FDX1 cuproptosis function)
Conditions: glucose 10 mM
Description: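 Deep mutational scan of full-length human FDX1: a pooled saturation-mutagenesis ORF library (every residue 2-184 mutated to all 19 amino acids plus stop, and silent codons where available) was expressed by lentivirus in FDX1-knockout ABC1 (14 days) or HEK293T (11 days) cells grown with elesclomol (ES) or DMSO control. Variant abundance came from ORF sequencing. The log2 fold change (ES vs control, mean of duplicates) was centred on the silent-variant mean (0) and scaled to the nonsense-variant mean (1). Higher values mean greater viability under ES, i.e. loss of FDX1 function in cuproptosis.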

[1] = with ABC1 FDX1 KO, elesclomol 5 nM, 14 days
[2] = with HEK293T FDX1 KO, elesclomol 40 nM, 11 days
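Also: variant abundance is its share of total variant reads in each endpoint sample, from next-generation sequencing of the integrated ORF PCR-amplified out of genomic DNA.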

Variant | scaled log2 fold change [1] | scaled log2 fold change [2]
MAAAGGARLLRAASAVLGGPAGRWLHHAGSRAGSSGLLRNRGPGGSAEASRSLSVSARARSSSEDKITVHFINRDGETLTTKGKVGDSLLMVVVENNLDIDGFGACEGTLACSTCHLIFEDHIYEKLDAITDEENDMLDLAYGLTDRSRLGCQICLTKSMDNMTVRVPETVADARQSIDVGKTS | -0.119 | -1.37
MAAAGGARLLRAASAVLGGPAGRWLHHAGSRAGSSGLLRNRGPGGSAEASRSLSVSARARSSSEDKITVHFINRDGETLTTKGKVGDSLLKVVVENNLDIDGFGACEGTLACSTCHLIFEDHIYEKLDAITDEENDMLDLAYGLTDRSRLGCQICLTKSMDNMTVRVPETVADARQSIDVGKTS | -0.39 | -0.0722
MAAAGGARLLRAASAVLGGPAGRWLHHAGSRAGSSGLLRNRGPGGSAEASRSLSVSARARSSSEDKITVHFINRDGETLTTKGKVGDSLLVVVVENNLDIDGFGACEGTLACSTCHLIFEDHIYEKLDAITDEENDMLDLAYGLTDRSRLGCQICLTKSMDNMTVRVPETVADARQSIDVGKTS | -0.017 | 0.747
MAAAGGARLLRAASAVLGGPAGRWLHHAGSRAGSSGLLRNRGPGGSAEASRSLSVSARARSSSEDKITVHFINRDGETLTTKGKVGDSLLQVVVENNLDIDGFGACEGTLACSTCHLIFEDHIYEKLDAITDEENDMLDLAYGLTDRSRLGCQICLTKSMDNMTVRVPETVADARQSIDVGKTS | -1.31 | -0.476
MAAAGGARLLRAASAVLGGPAGRWLHHAGSRAGSSGLLRNRGPGGSAEASRSLSVSARARSSSEDKITVHFINRDGETLTTKGKVGDSLLYVVVENNLDIDGFGACEGTLACSTCHLIFEDHIYEKLDAITDEENDMLDLAYGLTDRSRLGCQICLTKSMDNMTVRVPETVADARQSIDVGKTS | -0.0508 | 0.728
MAAAGGARLLRAASAVLGGPAGRWLHHAGSRAGSSGLLRNRGPGGSAEASRSLSVSARARSSSEDKITVHFINRDGETLTTKGKVGDSLLHVVVENNLDIDGFGACEGTLACSTCHLIFEDHIYEKLDAITDEENDMLDLAYGLTDRSRLGCQICLTKSMDNMTVRVPETVADARQSIDVGKTS | -0.00925 | -0.865
MAAAGGARLLRAASAVLGGPAGRWLHHAGSRAGSSGLLRNRGPGGSAEASRSLSVSARARSSSEDKITVHFINRDGETLTTKGKVGDSLLTVVVENNLDIDGFGACEGTLACSTCHLIFEDHIYEKLDAITDEENDMLDLAYGLTDRSRLGCQICLTKSMDNMTVRVPETVADARQSIDVGKTS | 0.169 | 
MAAAGGARLLRAASAVLGGPAGRWLHHAGSRAGSSGLLRNRGPGGSAEASRSLSVSARARSSSEDKITVHFINRDGETLTTKGKVGDSLLPVVVENNLDIDGFGACEGTLACSTCHLIFEDHIYEKLDAITDEENDMLDLAYGLTDRSRLGCQICLTKSMDNMTVRVPETVADARQSIDVGKTS | 0.307 | 0.179
MAAAGGARLLRAASAVLGGPAGRWLHHAGSRAGSSGLLRNRGPGGSAEASRSLSVSARARSSSEDKITVHFINRDGETLTTKGKVGDSLLRVVVENNLDIDGFGACEGTLACSTCHLIFEDHIYEKLDAITDEENDMLDLAYGLTDRSRLGCQICLTKSMDNMTVRVPETVADARQSIDVGKTS | -0.658 | -0.752
MAAAGGARLLRAASAVLGGPAGRWLHHAGSRAGSSGLLRNRGPGGSAEASRSLSVSARARSSSEDKITVHFINRDGETLTTKGKVGDSLLLVVVENNLDIDGFGACEGTLACSTCHLIFEDHIYEKLDAITDEENDMLDLAYGLTDRSRLGCQICLTKSMDNMTVRVPETVADARQSIDVGKTS | 0.217 | -0.127
MAAAGGARLLRAASAVLGGPAGRWLHHAGSRAGSSGLLRNRGPGGSAEASRSLSVSARARSSSEDKITVHFINRDGETLTTKGKVGDSLLIVVVENNLDIDGFGACEGTLACSTCHLIFEDHIYEKLDAITDEENDMLDLAYGLTDRSRLGCQICLTKSMDNMTVRVPETVADARQSIDVGKTS | 0.418 | -0.331
MAAAGGARLLRAASAVLGGPAGRWLHHAGSRAGSSGLLRNRGPGGSAEASRSLSVSARARSSSEDKITVHFINRDGETLTTKGKVGDSLLSVVVENNLDIDGFGACEGTLACSTCHLIFEDHIYEKLDAITDEENDMLDLAYGLTDRSRLGCQICLTKSMDNMTVRVPETVADARQSIDVGKTS | -0.972 | 0.774
MAAAGGARLLRAASAVLGGPAGRWLHHAGSRAGSSGLLRNRGPGGSAEASRSLSVSARARSSSEDKITVHFINRDGETLTTKGKVGDSLLNVVVENNLDIDGFGACEGTLACSTCHLIFEDHIYEKLDAITDEENDMLDLAYGLTDRSRLGCQICLTKSMDNMTVRVPETVADARQSIDVGKTS | 0.109 | -0.0567
MAAAGGARLLRAASAVLGGPAGRWLHHAGSRAGSSGLLRNRGPGGSAEASRSLSVSARARSSSEDKITVHFINRDGETLTTKGKVGDSLLWVVVENNLDIDGFGACEGTLACSTCHLIFEDHIYEKLDAITDEENDMLDLAYGLTDRSRLGCQICLTKSMDNMTVRVPETVADARQSIDVGKTS | 0.0916 | -0.265
MAAAGGARLLRAASAVLGGPAGRWLHHAGSRAGSSGLLRNRGPGGSAEASRSLSVSARARSSSEDKITVHFINRDGETLTTKGKVGDSLLDCVVENNLDIDGFGACEGTLACSTCHLIFEDHIYEKLDAITDEENDMLDLAYGLTDRSRLGCQICLTKSMDNMTVRVPETVADARQSIDVGKTS | 0.195 | -0.64
MAAAGGARLLRAASAVLGGPAGRWLHHAGSRAGSSGLLRNRGPGGSAEASRSLSVSARARSSSEDKITVHFINRDGETLTTKGKVGDSLLDDVVENNLDIDGFGACEGTLACSTCHLIFEDHIYEKLDAITDEENDMLDLAYGLTDRSRLGCQICLTKSMDNMTVRVPETVADARQSIDVGKTS | 1.07 | 1.13
MAAAGGARLLRAASAVLGGPAGRWLHHAGSRAGSSGLLRNRGPGGSAEASRSLSVSARARSSSEDKITVHFINRDGETLTTKGKVGDSLLDAVVENNLDIDGFGACEGTLACSTCHLIFEDHIYEKLDAITDEENDMLDLAYGLTDRSRLGCQICLTKSMDNMTVRVPETVADARQSIDVGKTS | 0.494 | -0.354
